Laboratory results as given in publication PMC4053179.

What was measured:
[1] = target: recombinant p38α MAP kinase (mitogen activated protein kinase) (UniProt Q16539); test: SPR; His-tagged p38α immobilised on an NTA sensor chip via Ni2+/NTA chelation, 25°C, BIAcore-2000; C-25 injected at 4.6 × 10^−6, 9.2 × 10^−6 and 13.8 × 10^−6 M; BIAevaluation 3.0
[2] = target: recombinant p38α MAP kinase (mitogen activated protein kinase) (UniProt Q16539)

UniProt Q16539, sequence (Q16539 whole entry): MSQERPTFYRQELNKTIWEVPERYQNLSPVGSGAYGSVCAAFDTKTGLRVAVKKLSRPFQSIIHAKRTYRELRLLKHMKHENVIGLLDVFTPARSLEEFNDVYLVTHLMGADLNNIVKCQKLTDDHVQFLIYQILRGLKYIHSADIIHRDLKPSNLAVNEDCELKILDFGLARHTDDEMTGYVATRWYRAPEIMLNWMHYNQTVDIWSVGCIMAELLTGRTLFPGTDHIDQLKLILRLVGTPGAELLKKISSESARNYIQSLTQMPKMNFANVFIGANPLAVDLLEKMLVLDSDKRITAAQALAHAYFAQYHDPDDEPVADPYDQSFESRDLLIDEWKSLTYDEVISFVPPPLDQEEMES

**Q.** What does the source list for “C-25 protein from Cicer arietinum (natural protein)”?
**A.** Kd [1]: 0.269 µM; IC50 of inhibition of the phosphorylation of plate-coated ATF-2 by p38α (ELISA kinase assay, 100 μM ATP, C-25 at 1-25 μM, anti-phospho ATF-2 detection) [2]: 7.9 µM
